These results are taken from patent publication US20240336686A1.

B1: Humanized anti-SIRPα antibody hu025.021 (antibody, V domains shown)
VH: EVQLVQSGAEVKKPGATVKISCKVSGFNIKDYYMHWVQQAPGKGLEWIGRIDPEDAETKYAPKFQGRVTITADTSTNTAYMELSSLRSEDTAVYYCDRGLAYWGQGTLVTVSS
VL: EIVLTQSPATLSLSPGERATLSCSASSSVSSSYLYWYQQKPGQAPKLWIYSTSNLASGIPARFSGSGSGTDYTLTISSLEPEDFAVYYCHQWSSYPYTFGQGTKLEIK
B2: Humanized anti-SIRPα antibody hu025.023 (antibody, V domains shown)
VH: B1 VH
VL: B1 VL with Y72F
B3: Humanized anti-SIRPα antibody hu025.059 (antibody, V domains shown)
VH: B1 VH with V24A
VL: B1 VL
B4: Humanized anti-SIRPα antibody hu025.060 (antibody, V domains shown)
VH: B1 VH with V24A
VL: B1 VL with Y72F
B5: Anti-SIRPα antibody C25 (antibody, V domains shown)
VH: EVQLQQSGAELVKPGASVKLSCTASGFNIKDYYMHWVKQRTEQGLEWIGRIDPEDGETKYAPKFQGKATITADTSSNTAYLQLSSLTSEDTAVYYCDRGLAYWGQGTLVTVSA
VL: QIVLTQSPAIMSASPGEKVTLTCSASSSVSSSYLYWYQQKPGSSPKLWIYSTSNLASGVPARFSGSGSGTSYSLTISSMEAEDAASYFCHQWSSYPYTFGGGTKLEIK
B6: Anti-Claudin18.2/SIRPα bispecific antibody ES028-001 (bispecific antibody, not shown: a dimerising Fc or GST)
light (part 1 of 2): DIVMTQSPDSLAVSLGERATINCKSSQSLLNAGNQKNYLTWYQQKPGQPPKLLIYWSSTRESGVPDRFSGSGSGTDFTLTISSLQAEDVAVYHCQNNYYYPLTFGGGTKLEIK
light (part 2 of 2): GGGGSGGGGSGGGGSQIVLTQSPAIMSASPGEKVTLTCSASSSVSSSYLYWYQQKPGSSPKLWIYSTSNLASGVPARFSGSGSGTSYSLTISSMEAEDAASYFCHQWSSYPYTFGGGTKLEIKGGGGSGGGGSGGGGSGGGGSEVQLQQSGAELVKPGASVKLSCTASGFNIKDYYMHWVKQRTEQGLEWIGRIDPEDGETKYAPKFQGKATITADTSSNTAYLQLSSLTSEDTAVYYCDRGLAYWGQGTLVTVSA
heavy: QVQLVQSGAEVKKPGASVKVSCKASGYTFTNWVHWVRQAPGQGLEWMGEINPTNARSNYNEKFKKRVTMTRDTSTSTVYMELSSLRSEDTAVYYCARIYYGNSFAHWGQGTLVTVSS
B7: Anti-Claudin18.2/SIRPα bispecific antibody ES028-005 (bispecific antibody, not shown: a dimerising Fc or GST)
light: B6 light (part 1 of 2)
heavy (part 1 of 2): B6 heavy
heavy (part 2 of 2): B6 light (part 2 of 2)
B8: Anti-Claudin18.2/SIRPα bispecific antibody ES028-009 (bispecific antibody, not shown: a dimerising Fc or GST)
light (part 1 of 2): B5 VL
light (part 2 of 2): GGGGSGGGGSGGGGSDIVMTQSPDSLAVSLGERATINCKSSQSLLNAGNQKNYLTWYQQKPGQPPKLLIYWSSTRESGVPDRFSGSGSGTDFTLTISSLQAEDVAVYHCQNNYYYPLTFGGGTKLEIKGGGGSGGGGSGGGGSGGGGSQVQLVQSGAEVKKPGASVKVSCKASGYTFTNWVHWVRQAPGQGLEWMGEINPTNARSNYNEKFKKRVTMTRDTSTSTVYMELSSLRSEDTAVYYCARIYYGNSFAHWGQGTLVTVSS
heavy: B5 VH
B9: Anti-Claudin18.2/SIRPα bispecific antibody ES028-013 (bispecific antibody, not shown: a dimerising Fc or GST)
light: B5 VL
heavy (part 1 of 2): B5 VH
heavy (part 2 of 2): B8 light (part 2 of 2)
B10: Anti-PDL1/SIRPα bispecific antibody ES019-026 (bispecific antibody, not shown: small tags and cut ends; a dimerising Fc or GST)
light (part 1 of 2): EVQVVESGGGLVQSGGSLKLSCAGSGFTESAGFMVWHRQVPGKERELVALIATPSGSTNYADSVKGRFTISRDNGKNTVYLQMNSLKPEDTAVYYCNIRGYWGQGTLVTVSS
light (part 2 of 2): B5 VL
heavy: B5 VH
B11: Anti-PDL1/SIRPα bispecific antibody ES019-024 (bispecific antibody, not shown: a dimerising Fc or GST)
light: B5 VL
heavy (part 1 of 2): B5 VH
heavy (part 2 of 2): B10 light (part 1 of 2)
B12: Anti-Claudin18.2 antibody hu28.H1L2 (antibody, V domains shown)
VH: B6 heavy
VL: B6 light (part 1 of 2)

Positions count from the first letter of the chain named.

Human SIRPα v1 (human), sequence (P78324 31-370): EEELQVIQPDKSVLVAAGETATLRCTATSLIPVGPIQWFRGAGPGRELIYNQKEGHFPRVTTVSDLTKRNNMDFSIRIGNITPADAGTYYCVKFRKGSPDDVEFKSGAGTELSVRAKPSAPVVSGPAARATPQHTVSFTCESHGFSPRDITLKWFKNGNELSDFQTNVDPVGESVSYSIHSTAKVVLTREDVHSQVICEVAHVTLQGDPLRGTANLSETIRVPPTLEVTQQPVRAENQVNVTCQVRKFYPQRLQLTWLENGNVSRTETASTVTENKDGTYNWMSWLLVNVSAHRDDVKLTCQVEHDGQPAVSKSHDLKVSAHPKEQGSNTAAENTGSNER

One experiment has as its target Human SIRPα v1 (human) (UniProt P78324). The experiment can be described thus: SPR (Biacore), 1:1 binding model.
By Kd is commonly meant the constant that tells how readily two partners part at equilibrium. Read a low Kd as higher affinity. For orientation: koff means the rate constant with which the complex falls apart. A low value points to a long-lived complex. As usually defined, the kon is the rate constant with which the complex forms. A lower kon goes with slow association. B1 had a Kd of 3.05 nM, a koff of 0.00183 s⁻¹ and an association rate constant (kon) of 599000 M⁻¹ s⁻¹.

For the molecule B2, the Kd is 2.67 nM, the koff worked out at 0.00172 s⁻¹ and the kon is 643000 M⁻¹ s⁻¹.

On to B3, for which the Kd is 2.29 nM, the koff amounted to 0.00123 s⁻¹ and the kon came to 536000 M⁻¹ s⁻¹.

The molecule B4 registered a Kd of 1.99 nM, a koff of 0.00111 s⁻¹ and a kon of 560000 M⁻¹ s⁻¹.

In turn, B5 displayed an equilibrium dissociation constant (Kd) of 1.53 nM, a koff of 0.000924 s⁻¹ and a kon of 602000 M⁻¹ s⁻¹.

The target in the next experiment is human SIRPα protein (Octet assay) (human) (UniProt P78324). Kind of experiment: Octet; antibody on sensor, SIRPα protein in solution. (In general: Biolayer interferometry detects binding as a change in optical thickness at a sensor tip.)
For B6, the Kd stood at 1.51 nM, the koff is 0.000271 s⁻¹ and the kon amounted to 179000 M⁻¹ s⁻¹.

Molecule B7 registered a Kd of 1.41 nM, a koff of 0.00047 s⁻¹ and a kon of 334000 M⁻¹ s⁻¹.

In turn, B5 yielded a Kd of 2.12 nM, a koff of 0.00109 s⁻¹ and a kon of 512000 M⁻¹ s⁻¹.

Turning to B8, the Kd was determined as 2.44 nM, the koff was 0.00133 s⁻¹ and the on-rate constant (kon) is 544000 M⁻¹ s⁻¹.

For another experiment, the target named is human SIRPα on CHO-K1 cells (human) (UniProt P78324). The experiment can be described thus: FACS, CHO-K1 cells overexpressing human SIRPα, anti-human Fc-PE, MFI. In general terms: A flow cytometer gives signals particle by particle.
As a reminder, the EC50 (read off the curve) is the concentration giving half of the maximal effect. The molecule B6 gave an EC50 (read off the curve) of 0.8 nM.

On to B7, for which the EC50 (read off the curve) was determined as 0.9 nM. The EC50 (read off the curve) values of the last two molecules are within 1.5-fold of each other.

For B5, the EC50 (read off the curve) is 0.5 nM.

For the molecule B8, the EC50 (read off the curve) is 0.5 nM.

Molecule B9 showed an EC50 (read off the curve) of 0.5 nM.

For a further experiment the target is unchanged. Described as above. The source holds these as a separate data set.
Molecule B5 returned an EC50 (read off the curve) of 0.3 nM. This counts as sub-nanomolar.

B10 showed an EC50 (read off the curve) of 0.4 nM. This EC50 (read off the curve) and that of the molecule before are within 1.5-fold of each other.

Molecule B11 registered an EC50 (read off the curve) of 0.3 nM. The EC50 (read off the curve) values of the last two molecules are within 1.5-fold of each other.

A further experiment concerns the target human Claudin18.2 on Raji cells (human) (UniProt P56856). The experiment can be described thus: FACS, Raji cells overexpressing human Claudin18.2, anti-human Fc-PE, MFI.
B6 registered an EC50 (read off the curve) of 2 nM.

For B12, the EC50 (read off the curve) turned out to be 1 nM.

For the molecule B7, the EC50 (read off the curve) turned out to be 1 nM. That is a single-digit nanomolar value.
